Results on 4 molecules are retold here after patent publication US9347942B2, “Ultrasensitive cell based sensors and uses thereof” (CANVAX BIOTECH SL, priority 2010, dated 2016).

Common to all, as to assay type: cell-based
In one experiment the target is T1, hIL8 receptor (hIL8RA) (Homo sapiens, UniProt P25024).
T1 construct: the entire human GPCR; mouse immunoglobulin kappa signal peptide (N); expressed in transfected cells
T1 sequence (P25024 3-350 limits assumed): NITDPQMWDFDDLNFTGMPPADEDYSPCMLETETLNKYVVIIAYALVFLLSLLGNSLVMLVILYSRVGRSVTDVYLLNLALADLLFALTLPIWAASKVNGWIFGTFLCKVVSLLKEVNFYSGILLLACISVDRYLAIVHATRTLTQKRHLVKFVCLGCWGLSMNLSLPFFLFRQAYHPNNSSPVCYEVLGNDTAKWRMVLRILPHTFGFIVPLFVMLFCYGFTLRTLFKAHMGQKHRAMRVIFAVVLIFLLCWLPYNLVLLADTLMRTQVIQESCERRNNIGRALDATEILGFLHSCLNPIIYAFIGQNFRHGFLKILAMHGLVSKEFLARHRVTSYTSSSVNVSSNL
Nature of the experiment: Multiplex assay, Sensor A channel (hIL8RA and human granzyme A) (Example 14). As to conditions: for Signal to background at 30 min: granzyme A substrate 1 uM. An excerpt:
(§1) The principle of multiplex reactions is illustrated in FIG. 5. RBL2H3 cells were stably transfected with a pair of a GPCR as exocytosis modulator and a granzyme as a granule stored reporter as described in example 9. Combinations included were: hIL8 receptor (hIL8RA) and human granzyme A (Sensor A) and CHRM2 and granzyme B expressing cells of example #12 (Sensor B). Human IL8 was used as agonist of hll_8R while carbachol was used as CHRM2 agonist. […] As both substrates uses the same pair of fluorophore (FAM) and quencher (TAMRA) only one substrate could be added to reaction vessel for specific detection at 535 nm after excitation at 485 nm. […] Sensors, agonists and substrates were mixed in a total volume of 20 uL of HBSS in a black walled 384 well microplate and the microplate was incubated at 37 Celsius degrees in a BMG-Labtech microplate fluorimeter and read at 0, 15, 30, 45 and 60 minutes.

For a further experiment, the target named is T2, CHRM2 (Homo sapiens, UniProt P08172).
T2 construct: the entire human GPCR; mouse immunoglobulin kappa signal peptide (N); expressed in transfected cells
T2 sequence (P08172 2-466): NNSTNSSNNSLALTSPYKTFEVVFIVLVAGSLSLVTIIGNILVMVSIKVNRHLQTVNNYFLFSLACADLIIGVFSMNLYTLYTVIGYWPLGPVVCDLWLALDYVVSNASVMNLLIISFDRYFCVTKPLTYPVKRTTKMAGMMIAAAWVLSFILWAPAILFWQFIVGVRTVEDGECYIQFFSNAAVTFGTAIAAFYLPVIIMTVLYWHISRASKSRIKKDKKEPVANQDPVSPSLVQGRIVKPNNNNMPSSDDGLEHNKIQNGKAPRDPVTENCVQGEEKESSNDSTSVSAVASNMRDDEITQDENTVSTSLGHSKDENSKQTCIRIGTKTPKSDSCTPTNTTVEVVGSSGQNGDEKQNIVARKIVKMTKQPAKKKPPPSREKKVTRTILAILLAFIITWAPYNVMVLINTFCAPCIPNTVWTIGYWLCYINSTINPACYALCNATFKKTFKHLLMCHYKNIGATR
Nature of the experiment: Multiplex assay, Sensor B channel (CHRM2 and granzyme B) (Example 14). As to conditions: Condition 9: Sensor A 12500 + Sensor B 5000 cells, IL8 10 uM, no carbachol, granzyme B substrate 1 uM.
From the text: as §1

Experiment [1] deals with T3, bradykinin type B1 receptor (Homo sapiens, UniProt P46663).
T3 construct: the entire human GPCR; mouse immunoglobulin kappa signal peptide (N); expressed in transfected cells
T3 sequence (P46663 5-353 limits assumed): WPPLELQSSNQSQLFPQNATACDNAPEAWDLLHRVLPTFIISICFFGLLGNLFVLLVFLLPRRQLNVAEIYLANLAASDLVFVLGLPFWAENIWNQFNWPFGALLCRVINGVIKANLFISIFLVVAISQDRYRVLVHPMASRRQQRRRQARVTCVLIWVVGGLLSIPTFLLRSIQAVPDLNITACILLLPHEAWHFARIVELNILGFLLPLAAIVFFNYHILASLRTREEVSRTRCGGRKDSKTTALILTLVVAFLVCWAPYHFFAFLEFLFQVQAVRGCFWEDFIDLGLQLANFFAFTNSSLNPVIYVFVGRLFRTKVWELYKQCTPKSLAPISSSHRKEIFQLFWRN
Nature of the experiment: Exocytosis time optimisation, granzyme B FRET readout (Example 12). The note with it: agonist 10 uM. The source says: An experiment was designed to optimize assay conditions such as: exocytosis time, number of steps needed for assay and uses of cells in suspension. Cells developed in example #9 expressing both a GPCR and human granzyme B were used in this example for optimization of exocytosis time. GPCRs included were CHRM2 (an alpha-i coupled GPCR) and bradykinin type B1 receptor (an alpha-q coupled GPCR). Carbachol and kallinin from Sigma-Aldrich (USA) were used as ligands for CHRM2 and bradykinin type B1 receptor, respectively and used at 10 uM final concentration in HBSS buffer. Cells were seeded the night before experiment at 20.000 cells per well of a 96-well microplate in 100 uL of complete cell culture medium. Next day cells were washed with HBSS buffer and incubated with the ligand (agonist) at 10 uM of each GPCR in 30 uL of HBSS buffer at 37 Celsius degrees for 5, 15, 30 or 60 minutes and after centrifugation at 400 g for 5 minutes supernatants were analysed for human granzyme B activity using FAM-[…]-TAMRA at 1 uM final concentration as the human granzyme B substrate. Released FAM was measured by excitation at 485 nm and emission at 535 nm in a BMG Labtech microplate fluorimeter in 96 well microplates. Microplates were incubated at 37 Celsius degrees on the reader and were kinetically read at 0, 15, 30, 45 and 60 minutes. Control wells with substrate only in HBSS buffer were included to subtract autofluorescence of substrates to both cells treated with ligands and to cells treated with HBSS buffer only. […] The signal to background is lower at longer exocytosis times due to the higher increase in basal release than the increase in specific signal after the first 5 to 15 minutes. Thus, any exocytosis time from probably less than 5 minutes to at least 60 minutes may be used for the methods of the present invention but longer exocytosis times produce a sensor with a lower signal to background, exocytosis is nearly complete at 5 minutes and signal to background is good for a robust sensor.

Experiment [2] concerns the target T4, bradykinin type B1 receptor (BDKRB1) (Homo sapiens, UniProt P46663).
T4 construct: the entire human GPCR; mouse immunoglobulin kappa signal peptide (N); expressed in transfected cells
T4 sequence (P46663 5-353 limits assumed): T3 sequence (P46663 5-353 limits assumed)
Nature of the experiment: Agonist-induced exocytosis of granzyme B, sandwich ELISA (Example 9). The note with it: agonist 10 uM, 60 minutes. The source says: (§2) Human granzyme B was selected as reporter, chimeric promoter of hCMV-MoLV5′LTR as promoter for reporter expression, RBL-2H3 as hemopoyetic cells with professional regulated exocytosis and several GPCRs as exocytosis modulators under the control of Moloney Leukaemia virus 5′-LTR (MoMLV5′LTR, SEQ ID NO:3) as promoter for expression of exocytosis modulators. […] Vectors for expression of granzyme B had the chimeric promoter of hCMV-MoLV5′LTR-GranzymeB-IRES-NGFR with hygromycin resistance for stable transfections. Vectors for GPCR were electroporated first, cells were selected with neomycin at 500 ug/mL for about two weeks and cells were analysed by flow cytometry (Guava Technologies, USA) with anti-cmyc tag antibody (anti-cmyc-FITC, clone 9E10, Sigma-Aldrich, USA) for surface expression. Positive cells were separated by magnetic separation using anti-cmyc monoclonal antibody conjugated to biotin (Miltenyi Biotec, Germany) and streptavidin-MACS (Miltenyi Biotec, Germany). After growing positive fraction of cells was again analysed by flow cytometry with the anti-cmyc tag antibody. Positive cells were individually electroporated with the vector for expression human granzyme B using a microporator (Digital Bio Technology, South Korea) and after 48 hours hygromycin at 1500 ug/mL and neomycin at 500 ug/mL were added to culture for selection. After selection for about 2 weeks cells were analysed by flow cytometry (Guava Technologies, USA) with an antibody against NGFR coupled to FITC. Positive population where magnetically separated by MACS using anti-NGFR-MACS sup.R (Miltenyi Biotec, Germany). Sorted populations were again analysed again by flow cytometry to check both the expression of the GPCR with the anti-cmyc tag antibody and with anti-NGFR antibody to check granzyme B expression. […] GPCRs included were: SSTR2 and CHRM2 as alpha-i coupled GPCRs; AGTR1 and bradykinin type B1 receptor (BDKRB1) as alpha-q coupled GPCRs and AVPR2 as alpha-s coupled GPCR. […] Cells were seeded the night before experiment at 100.000 cells per well of a 96-well microplate in 100 uL of complete cell culture medium. Next day cells were washed with HBSS buffer and incubated with the ligand (agonist) at 10 uM of each GPCR in 30 uL of HBSS buffer at 37 Celsius degrees for 60 minutes and after centrifugation at 400 g for 5 minutes supernatants were analysed for human granzyme B protein by a sandwich ELISA specific for human granzyme B (Ucytech, Netherlands).
In general terms: In an ELISA, binding on a coated surface is turned into a signal by an enzyme label.

The next experiment has as its target T5, AGTR1 (Homo sapiens, UniProt P30556).
T5 construct: the entire human GPCR; mouse immunoglobulin kappa signal peptide (N); expressed in transfected cells
T5 sequence (P30556 2-359): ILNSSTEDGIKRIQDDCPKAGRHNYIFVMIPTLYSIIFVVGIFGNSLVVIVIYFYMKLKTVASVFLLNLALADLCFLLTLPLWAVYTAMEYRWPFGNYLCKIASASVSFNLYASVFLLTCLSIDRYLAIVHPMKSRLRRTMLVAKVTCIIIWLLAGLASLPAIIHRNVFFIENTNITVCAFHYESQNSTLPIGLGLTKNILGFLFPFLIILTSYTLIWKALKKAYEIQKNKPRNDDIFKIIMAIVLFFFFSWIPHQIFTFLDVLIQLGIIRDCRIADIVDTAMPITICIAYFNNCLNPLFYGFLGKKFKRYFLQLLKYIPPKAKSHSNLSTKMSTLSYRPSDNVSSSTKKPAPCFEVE
The description is as above. The note with it: agonist 10 uM, 60 minutes.
From the text: as §2

The target in another experiment is T6, SSTR2 (Homo sapiens, UniProt P30874).
T6 construct: the entire human GPCR; mouse immunoglobulin kappa signal peptide (N); expressed in transfected cells
T6 sequence (P30874 2-369): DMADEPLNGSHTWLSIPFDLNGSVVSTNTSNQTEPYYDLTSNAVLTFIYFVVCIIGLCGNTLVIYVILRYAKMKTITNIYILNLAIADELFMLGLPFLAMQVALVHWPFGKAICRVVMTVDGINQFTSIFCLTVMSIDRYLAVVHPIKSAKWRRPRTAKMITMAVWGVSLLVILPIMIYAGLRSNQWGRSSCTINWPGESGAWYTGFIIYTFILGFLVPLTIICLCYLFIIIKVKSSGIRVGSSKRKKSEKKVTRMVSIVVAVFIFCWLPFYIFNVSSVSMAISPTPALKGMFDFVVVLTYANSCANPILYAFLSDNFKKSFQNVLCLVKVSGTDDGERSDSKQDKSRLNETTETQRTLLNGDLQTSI
The description is as above. As to conditions: agonist 10 uM, 60 minutes.
From the text: as §2

The mark [3] stands for this setting: 100.000 cells, dilution 2250, after subtraction of 0.2 blank.

Consider IL8: Human IL8 used as agonist of hIL8R, for which the “Signal to background at 30 min” value is listed as 16 with hIL8 receptor (hIL8RA) (Condition 2: 12500 cells Sensor A, IL8 10 uM); 12.5 with hIL8 receptor (hIL8RA) (Condition 5: Sensor A 12500 + Sensor B 5000 cells, IL8 10 uM + carbachol 10 uM); 0.95 in the experiment with CHRM2. For the same molecule, the “maximal granzyme A activity secreted by sensor A upon IL8, relative to granzyme B activity secreted by sensor B upon carbachol” value with hIL8 receptor (hIL8RA) (first experiment, data not shown) was “about 40%”.
kallinin: the “exocytosis, % of maximal” value in experiment [1] (5 minutes, 20.000 cells) is recorded as over 90%. The results for the “signal to background (S/B)” value in experiment [1] (medium taken at 5 to 15 minutes), in experiment [1] (medium taken at 30 minutes) and in experiment [1] (medium taken at 60 minutes) were 20-22, 15-17 and 8-10, respectively. Also, in experiment [2] (setting [3]), the “Absorbance at maximal dilution of ELISA tested” value (shortened to “Absorbance at maximal dilution”) turned out to be 0.8. Moreover, in experiment [2] (granzyme B ELISA), the “Sensitivity (minimal amount of cells needed)” value (“Sensitivity” below) is under 150 cells.
With angiotensin, the “Absorbance at maximal dilution” value on AGTR1 (setting [3]) is 1.8. At AGTR1 (granzyme B ELISA), the “Sensitivity” value is under 150 cells.
Turning to `CC(C)[C@@H]1NC(=O)[C@H](CCCCN)NC(=O)[C@@H](Cc2c[nH]c3ccccc23)NC(=O)[C@H](Cc2ccc(O)cc2)NC(=O)[C@H](C)N(C)C(=O)[C@H](Cc2ccccc2)NC1=O` [Seglitide, seglitide], at SSTR2 (setting [3]), the “Absorbance at maximal dilution” value turned out to be 2.4. At SSTR2 (granzyme B ELISA), the “Sensitivity” value is reported as under 150 cells.
